Legend:
[1] = Ca2+ binding isotherm (Ca ion selective electrode) fitted with semi-empirical binding model; details: 6.4 = high affinity dianionic phosphoseryl sites; listed as OPN peptide
Source text: To model the chemical species in the OPN 1-149 nanocluster solution requires the calculation of Ca ion binding to the free peptide at any pH in the range 5.0-8.0. A semi-empirical model was used to describe the binding isotherms obtained previously for the β-casein 1-25 phosphopeptide in this pH range and the same model was adapted to fit the binding isotherm of OPN 1-149 measured at pH 7.0. The rescaled model was then used to predict binding at any other value of the pH. Binding of Ca ions to the β-casein 1-25 peptide is predominantly to 4 phosphorylated residues and, to a lesser extent, to 7 Glu residues and the C-terminus.
Fitting of the experimental isotherms was done to an equation of the form
where the summation is over all binding sites with Ca ion association constants Ka,i. The function Ni(pH) describes the number of sites of type i as a function of pH and φi is the degree of phosphorylation. It was assumed, that all the phosphorylated sites had the average degree of phosphorylation φ. The number of dianionic phosphoseryl sites at a given pH is given by
The binding behaviour of β-casein has shown that one Ca ion is bound much more strongly than the rest, so the model for binding to the phosphate dianionic groups allowed for two pKs and two Ca ion association constants. The phosphorylated sites have a reduced affinity for Ca ions when they become protonated and were treated as having the same low affinity as the carboxyl groups. […]
The Ca^2+ binding isotherm of peptides recovered from fraction F3a was determined by measuring the concentration of free Ca ions with a Ca ion selective electrode after successive small additions of a stock solution of 100 mM Ca(NO3)2 to a solution containing 25 mg ml^−1 of F3a, buffered to pH 7.0 with 20 mM P, and 50 mM KNO3. […] The calculated OPN 1-149 isotherm was obtained by a separate fitting of the single isotherm employing a model with two pKs and association constants but keeping as many as possible of the constants from the casein model.

[2] = Stability and reconstitution of nanocluster solutions (urea/urease method); format: physicochemical; details: in the original volume of water; clear solution, nanocluster size unchanged
Protocol: Nanoclusters were prepared by the urea/urease method, as discussed above and as known in the art (Holt, C., Wahlgren, N. M. & Drakenberg, T. (1996). Ability of a beta-casein phosphopeptide to modulate the precipitation of calcium phosphate by forming amorphous dicalcium phosphate nanoclusters. Biochemical Journal 314, 1035-1039) but wherein the phosphopeptide was provided by either the OPNmix, discussed above, or fractions from the gel filtration separation. Typically, an OPNmix sample (25 mg) was dissolved in 1 ml of water and dialysed overnight against 500 ml of 1 mM EDTA followed by exhaustive dialysis against deionised water to remove Ca ions. The Ca-free peptides were recovered by freeze drying.
An initial under-saturated solution of salts at pH 5 with the composition 22 mM Ca(NO3)2, 20 mM KH2PO4, 36 mM KNO3 and 1.5 mM NaN3 (Mg-free Buffer A) was used to dissolve the peptide. Sufficient urea (0-30 mM) was added from a stock solution of 200 mM to give the desired final pH after hydrolysis with 2 units of urease from Canavalia ensiformis (Calbiochem product no. 666133). These conditions allowed the pH to rise to within 0.004 units of the target value within a few minutes. […]

For “OPN 1-149: N-terminal osteopontin phosphopeptide fragment from bovine milk, probably formed by plasmin; gel filtration fraction F3a”, the “pKs fitted to the OPN 1-149 isotherm” value [1] was 6.4 and the “dissolution of freeze-dried nanocluster powder” value [2] was “dissolve virtually instantly”.
